Reference: US20100037349A1 (University of California, published 2010)
Substitutions are numbered along the chain they refer to. Each block holds one molecule with its values, some of them ahead of it.

How the values were obtained:
[1] = target: Arabidopsis NPR1 protein (Arabidopsis) (UniProt P93002); assay: cell-based or functional assay
Arabidopsis NPR1 protein = target: T1, Arabidopsis NPR1 protein (Arabidopsis, UniProt P93002 1-593, limits assumed); assay: interaction assay (yeast), summary of the examples
T1 construct: In the plant experiments it is the endogenous NPR1; also called NIM1; SAI1
T1 sequence (looked up): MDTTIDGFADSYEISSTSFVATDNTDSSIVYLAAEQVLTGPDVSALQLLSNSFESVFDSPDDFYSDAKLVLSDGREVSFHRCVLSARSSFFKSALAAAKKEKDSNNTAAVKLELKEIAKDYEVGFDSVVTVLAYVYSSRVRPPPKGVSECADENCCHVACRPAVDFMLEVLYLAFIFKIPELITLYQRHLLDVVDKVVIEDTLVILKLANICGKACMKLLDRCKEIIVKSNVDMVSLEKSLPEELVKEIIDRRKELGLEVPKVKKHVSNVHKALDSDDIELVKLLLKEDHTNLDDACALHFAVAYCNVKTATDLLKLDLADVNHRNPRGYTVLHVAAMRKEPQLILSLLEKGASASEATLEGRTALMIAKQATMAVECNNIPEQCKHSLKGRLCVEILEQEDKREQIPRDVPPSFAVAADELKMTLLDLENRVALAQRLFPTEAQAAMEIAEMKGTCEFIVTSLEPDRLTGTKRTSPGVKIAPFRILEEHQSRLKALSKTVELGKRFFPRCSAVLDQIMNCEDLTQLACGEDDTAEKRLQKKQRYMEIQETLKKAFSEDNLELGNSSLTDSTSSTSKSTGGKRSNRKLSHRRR

Molecule: NIAD fusion protein (N-terminal first 52 amino acids of NRR fused to a VP16 activation domain) (from UniProt P06492 413-490)
GUS activity from the BG2-Gus reporter after 0.1 mM INA induction (transgenic Arabidopsis line NIAD-22, repeat assay) [1]: 2 fold over WT | Pst DC3000 bacterial populations at day 4, wild type relative to the NIAD lines [1]: 4 to 5 fold

binding result (Arabidopsis NPR1 protein): binds
B1: rice NRR (Negative Regulator of disease Resistance) protein, wild type (other)
chain: MDATTTDATTAKRKRPAASDIADDAPTTVDEVSDAEVEEFYAILRRMRDATRRLGARPPPPRAPAWRPSFSWEDFADAPPKQAPPPPQQPADHERVAENATPPRRPAPGLDLNVEPPSDAPATPRSARAPA
notes: also called wild type NRR

binding result (Arabidopsis NPR1 protein): binds
B2: NRR single point mutant E39K (other)
chain: B1 chain with E39K
notes: also called EK
